Assay results taken from patent US20260167684A1 (MERIDA BIOSCIENCES, published 2026).

T1: FcγRIIB (human, UniProt P31994 46-217, limits assumed)
T1 construct: Soluble protein used in SPR
T1 sequence (looked up): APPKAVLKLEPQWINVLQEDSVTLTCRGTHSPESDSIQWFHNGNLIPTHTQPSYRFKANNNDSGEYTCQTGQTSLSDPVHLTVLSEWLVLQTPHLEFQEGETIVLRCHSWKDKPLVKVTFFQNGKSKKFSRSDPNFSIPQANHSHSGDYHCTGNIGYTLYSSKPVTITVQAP

T2: FcγRIIA167R (UniProt P12318 36-218)
T2 construct: Soluble protein used in SPR
T2 sequence (looked up): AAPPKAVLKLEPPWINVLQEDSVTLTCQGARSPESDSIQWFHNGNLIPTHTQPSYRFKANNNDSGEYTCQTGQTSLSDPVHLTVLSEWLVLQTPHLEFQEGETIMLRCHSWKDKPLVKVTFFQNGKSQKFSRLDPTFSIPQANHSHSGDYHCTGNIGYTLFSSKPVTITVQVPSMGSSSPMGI

T3: FcγRIIA167H (UniProt P12318 36-218)
T3 construct: Soluble protein used in SPR
T3 sequence (looked up): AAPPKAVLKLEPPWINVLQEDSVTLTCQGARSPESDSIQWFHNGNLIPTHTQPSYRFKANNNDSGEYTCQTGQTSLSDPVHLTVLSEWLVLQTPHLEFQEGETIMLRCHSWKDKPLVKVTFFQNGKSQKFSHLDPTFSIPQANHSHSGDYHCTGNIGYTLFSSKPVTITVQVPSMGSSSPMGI


How the values were obtained:
FcγRIIB = molecular target: T1, FcγRIIB; assay: SPR; molecule captured on CM5 chip, FcγR as analyte; steady-state fit
Method: (§1) Binding assays using SPR were performed to determine the binding affinity of the exemplary molecules. Molecules were captured on a CM5 SPR chip. Increasing concentrations of FcγR analyte (FcγRIIA167H, FcγRIIA167R or FcγRIIB) were subsequently injected over the captured molecules and a single dissociation performed using single cycle kinetics. The data was then analyzed using steady state analysis which is suitable for low affinity interactions. In particular, a plot of response at equilibrium against the molecule concentration was generated.

FcγRIIA167R = molecular target: T2, FcγRIIA167R; assay: as above
Method: as §1

FcγRIIA167H [1] = molecular target: T3, FcγRIIA167H; assay: as above
Method: as §1

FcγRIIA167H [2] = molecular target: T3, FcγRIIA167H; assay: SPR, molecule captured on the sensor chip, FcγRIIA167H as analyte
Method: as §1

Row | Kd (FcγRIIB) | Kd (FcγRIIA167R) | Kd (FcγRIIA167H [1]) | binding result (FcγRIIA167H [2]) | Binder
1 | 22.3 nM | 369 nM | 3810 nM |  | Variant G12 (Fc fusion, Knob-in-hole heterodimer; also called TSHR260 2P2R huIgG1 Fc G237D/P238D/P271G/A330R) chain 1: MGCSSPPCECHQEEDFRVTCKDIQRIPSLPPSTQTLKLIETHLRTIPSHAFSNLPNISRIYVSIDVTLQQLESHSFYNLSKVTHIEIRNTPNLTYIDPDALKELPLLKFLGIFNTGLKMFPPLTKVYSTDIFFILEITDNPYMTSIPRNAFQGLCNETLTLKLYNNGFTSVQGYAFNGTKLDAVYLNKNKYLTVIDKDAFGGVYSGPSLLDVSQTSVTALPSKGLEHLKELRARNTWTLDKTHTCPPCPAPELLGDDSVFLFPPKPKDTLMISRTPEVTCVVVDVSHEDGEVKFNWYVDGVEVHNAKTKPREEQYNSTYRVVSVLTVLHQDWLNGKEYKCKVSNKALPRPIEKTISKAKGQPREPQVYTLPPCREEMTKNQVSLWCLVKGFYPSDIAVEWESNGQPENNYKTTPPVLDSDGSFFLYSKLTVDKSRWQQGNVFSCSVMHEALHNHYTQKSLSLSPGK chain 2: DKTHTCPPCPAPELLGDDSVFLFPPKPKDTLMISRTPEVTCVVVDVSHEDGEVKFNWYVDGVEVHNAKTKPREEQYNSTYRVVSVLTVLHQDWLNGKEYKCKVSNKALPRPIEKTISKAKGQPREPQVCTLPPSREEMTKNQVSLSCAVKGFYPSDIAVEWESNGQPENNYKTTPPVLDSDGSFFLVSKLTVDKSRWQQGNVFSCSVMHEALHNHYTQKSLSLSPGK
2 | 127 nM | 1790 nM |  |  | Variant G13 (Fc fusion, Knob-in-hole heterodimer; also called TSHR260 2P2R huIgG1 Fc G237D/P238D/D270E/P271G/A330R) chain 1: MGCSSPPCECHQEEDFRVTCKDIQRIPSLPPSTQTLKLIETHLRTIPSHAFSNLPNISRIYVSIDVTLQQLESHSFYNLSKVTHIEIRNTPNLTYIDPDALKELPLLKFLGIFNTGLKMFPPLTKVYSTDIFFILEITDNPYMTSIPRNAFQGLCNETLTLKLYNNGFTSVQGYAFNGTKLDAVYLNKNKYLTVIDKDAFGGVYSGPSLLDVSQTSVTALPSKGLEHLKELRARNTWTLDKTHTCPPCPAPELLGDDSVFLFPPKPKDTLMISRTPEVTCVVVDVSHEEGEVKFNWYVDGVEVHNAKTKPREEQYNSTYRVVSVLTVLHQDWLNGKEYKCKVSNKALPRPIEKTISKAKGQPREPQVYTLPPCREEMTKNQVSLWCLVKGFYPSDIAVEWESNGQPENNYKTTPPVLDSDGSFFLYSKLTVDKSRWQQGNVFSCSVMHEALHNHYTQKSLSLSPGK chain 2: DKTHTCPPCPAPELLGDDSVFLFPPKPKDTLMISRTPEVTCVVVDVSHEEGEVKFNWYVDGVEVHNAKTKPREEQYNSTYRVVSVLTVLHQDWLNGKEYKCKVSNKALPRPIEKTISKAKGQPREPQVCTLPPSREEMTKNQVSLSCAVKGFYPSDIAVEWESNGQPENNYKTTPPVLDSDGSFFLVSKLTVDKSRWQQGNVFSCSVMHEALHNHYTQKSLSLSPGK
3 | 30.9 nM | 4.32 nM | 114 nM |  | Variant G14 (Fc fusion, Knob-in-hole heterodimer; also called TSHR260 2P2R huIgG1 Fc S239D/H268D/L328W) chain 1: MGCSSPPCECHQEEDFRVTCKDIQRIPSLPPSTQTLKLIETHLRTIPSHAFSNLPNISRIYVSIDVTLQQLESHSFYNLSKVTHIEIRNTPNLTYIDPDALKELPLLKFLGIFNTGLKMFPPLTKVYSTDIFFILEITDNPYMTSIPRNAFQGLCNETLTLKLYNNGFTSVQGYAFNGTKLDAVYLNKNKYLTVIDKDAFGGVYSGPSLLDVSQTSVTALPSKGLEHLKELRARNTWTLDKTHTCPPCPAPELLGGPDVFLFPPKPKDTLMISRTPEVTCVVVDVSDEDPEVKFNWYVDGVEVHNAKTKPREEQYNSTYRVVSVLTVLHQDWLNGKEYKCKVSNKAWPAPIEKTISKAKGQPREPQVYTLPPCRDELTKNQVSLWCLVKGFYPSDIAVEWESNGQPENNYKTTPPVLDSDGSFFLYSKLTVDKSRWQQGNVFSCSVMHEALHNHYTQKSLSLSPGK chain 2: DKTHTCPPCPAPELLGGPDVFLFPPKPKDTLMISRTPEVTCVVVDVSDEDPEVKFNWYVDGVEVHNAKTKPREEQYNSTYRVVSVLTVLHQDWLNGKEYKCKVSNKAWPAPIEKTISKAKGQPREPQVCTLPPSRDELTKNQVSLSCAVKGFYPSDIAVEWESNGQPENNYKTTPPVLDSDGSFFLVSKLTVDKSRWQQGNVFSCSVMHEALHNHYTQKSLSLSPGK

Second part, the binder before the results:

Row | Binder | Kd (FcγRIIB) | Kd (FcγRIIA167R) | Kd (FcγRIIA167H [1]) | binding result (FcγRIIA167H [2])
4 | Variant G4 (Fc fusion, Knob-in-hole heterodimer; also called TSHR260 2P2R huIgG1 Fc E233D/G237D/P238D/H268D/P271G/A330R) chain 1: MGCSSPPCECHQEEDFRVTCKDIQRIPSLPPSTQTLKLIETHLRTIPSHAFSNLPNISRIYVSIDVTLQQLESHSFYNLSKVTHIEIRNTPNLTYIDPDALKELPLLKFLGIFNTGLKMFPPLTKVYSTDIFFILEITDNPYMTSIPRNAFQGLCNETLTLKLYNNGFTSVQGYAFNGTKLDAVYLNKNKYLTVIDKDAFGGVYSGPSLLDVSQTSVTALPSKGLEHLKELRARNTWTLDKTHTCPPCPAPDLLGDDSVFLFPPKPKDTLMISRTPEVTCVVVDVSDEDGEVKFNWYVDGVEVHNAKTKPREEQYNSTYRVVSVLTVLHQDWLNGKEYKCKVSNKALPRPIEKTISKAKGQPREPQVYTLPPCRDELTKNQVSLWCLVKGFYPSDIAVEWESNGQPENNYKTTPPVLDSDGSFFLYSKLTVDKSRWQQGNVFSCSVMHEALHNHYTQKSLSLSPGK chain 2: DKTHTCPPCPAPDLLGDDSVFLFPPKPKDTLMISRTPEVTCVVVDVSDEDGEVKFNWYVDGVEVHNAKTKPREEQYNSTYRVVSVLTVLHQDWLNGKEYKCKVSNKALPRPIEKTISKAKGQPREPQVCTLPPSRDELTKNQVSLSCAVKGFYPSDIAVEWESNGQPENNYKTTPPVLDSDGSFFLVSKLTVDKSRWQQGNVFSCSVMHEALHNHYTQKSLSLSPGK | 55.6 nM | 836 nM |  | 
5 | Variant G6 (Fc fusion, Knob-in-hole heterodimer; also called TSHR260 2P2R huIgG1 Fc L234D/G236N/S267E) chain 1: MGCSSPPCECHQEEDFRVTCKDIQRIPSLPPSTQTLKLIETHLRTIPSHAFSNLPNISRIYVSIDVTLQQLESHSFYNLSKVTHIEIRNTPNLTYIDPDALKELPLLKFLGIFNTGLKMFPPLTKVYSTDIFFILEITDNPYMTSIPRNAFQGLCNETLTLKLYNNGFTSVQGYAFNGTKLDAVYLNKNKYLTVIDKDAFGGVYSGPSLLDVSQTSVTALPSKGLEHLKELRARNTWTLDKTHTCPPCPAPEDLNGPSVFLFPPKPKDTLMISRTPEVTCVVVDVEHEDPEVKFNWYVDGVEVHNAKTKPREEQYNSTYRVVSVLTVLHQDWLNGKEYKCKVSNKALPAPIEKTISKAKGQPREPQVYTLPPCRDELTKNQVSLWCLVKGFYPSDIAVEWESNGQPENNYKTTPPVLDSDGSFFLYSKLTVDKSRWQQGNVFSCSVMHEALHNHYTQKSLSLSPGK chain 2: DKTHTCPPCPAPEDLNGPSVFLFPPKPKDTLMISRTPEVTCVVVDVEHEDPEVKFNWYVDGVEVHNAKTKPREEQYNSTYRVVSVLTVLHQDWLNGKEYKCKVSNKALPAPIEKTISKAKGQPREPQVCTLPPSRDELTKNQVSLSCAVKGFYPSDIAVEWESNGQPENNYKTTPPVLDSDGSFFLVSKLTVDKSRWQQGNVFSCSVMHEALHNHYTQKSLSLSPGK | 335 nM |  |  | no binding (tested: about 2.4e-6 M)
6 | Variant G2 (Fc fusion, Knob-in-hole heterodimer; also called TSHR260 2P2R huIgG1 Fc E233V/L234D/L235F/G236R/G237D/S239L/S267D/R292Q/H268P/S298G/T299A/A327L/L328A/A330H/E333I) chain 1: MGCSSPPCECHQEEDFRVTCKDIQRIPSLPPSTQTLKLIETHLRTIPSHAFSNLPNISRIYVSIDVTLQQLESHSFYNLSKVTHIEIRNTPNLTYIDPDALKELPLLKFLGIFNTGLKMFPPLTKVYSTDIFFILEITDNPYMTSIPRNAFQGLCNETLTLKLYNNGFTSVQGYAFNGTKLDAVYLNKNKYLTVIDKDAFGGVYSGPSLLDVSQTSVTALPSKGLEHLKELRARNTWTLDKTHTCPPCPAPVDFRDPLVFLFPPKPKDTLMISRTPEVTCVVVDVDPEDPEVKFNWYVDGVEVHNAKTKPQEEQYNGAYRVVSVLTVLHQDWLNGKEYKCKVSNKLAPHPIIKTISKAKGQPREPQVYTLPPCRDELTKNQVSLWCLVKGFYPSDIAVEWESNGQPENNYKTTPPVLDSDGSFFLYSKLTVDKSRWQQGNVFSCSVMHEALHNHYTQKSLSLSPGK chain 2: DKTHTCPPCPAPVDFRDPLVFLFPPKPKDTLMISRTPEVTCVVVDVDPEDPEVKFNWYVDGVEVHNAKTKPQEEQYNGAYRVVSVLTVLHQDWLNGKEYKCKVSNKLAPHPIIKTISKAKGQPREPQVCTLPPSRDELTKNQVSLSCAVKGFYPSDIAVEWESNGQPENNYKTTPPVLDSDGSFFLVSKLTVDKSRWQQGNVFSCSVMHEALHNHYTQKSLSLSPGK | 2610 nM |  |  | no binding (tested: about 2.4e-6 M)
7 | Variant G1 (Fc fusion, Knob-in-hole heterodimer; also called TSHR260 2P2R huIgG1 Fc E233V/L234D/L235F/G236R/G237D/S239L/S267D/H268P/S298G/T299A/A327L/L328A/A330H/E333I) chain 1: MGCSSPPCECHQEEDFRVTCKDIQRIPSLPPSTQTLKLIETHLRTIPSHAFSNLPNISRIYVSIDVTLQQLESHSFYNLSKVTHIEIRNTPNLTYIDPDALKELPLLKFLGIFNTGLKMFPPLTKVYSTDIFFILEITDNPYMTSIPRNAFQGLCNETLTLKLYNNGFTSVQGYAFNGTKLDAVYLNKNKYLTVIDKDAFGGVYSGPSLLDVSQTSVTALPSKGLEHLKELRARNTWTLDKTHTCPPCPAPVDFRDPLVFLFPPKPKDTLMISRTPEVTCVVVDVDPEDPEVKFNWYVDGVEVHNAKTKPREEQYNGAYRVVSVLTVLHQDWLNGKEYKCKVSNKLAPHPIIKTISKAKGQPREPQVYTLPPCRDELTKNQVSLWCLVKGFYPSDIAVEWESNGQPENNYKTTPPVLDSDGSFFLYSKLTVDKSRWQQGNVFSCSVMHEALHNHYTQKSLSLSPGK chain 2: DKTHTCPPCPAPVDFRDPLVFLFPPKPKDTLMISRTPEVTCVVVDVDPEDPEVKFNWYVDGVEVHNAKTKPREEQYNGAYRVVSVLTVLHQDWLNGKEYKCKVSNKLAPHPIIKTISKAKGQPREPQVCTLPPSRDELTKNQVSLSCAVKGFYPSDIAVEWESNGQPENNYKTTPPVLDSDGSFFLVSKLTVDKSRWQQGNVFSCSVMHEALHNHYTQKSLSLSPGK | 2620 nM |  |  | no binding (tested: about 2.4e-6 M)
